Where a SMILES comes first, the peptide text is derived from it.
How the values were obtained:
[1] = Blood stability: hydrolysis of PAPTPL-peptide derivatives in mouse blood; format: in vitro ADME; conditions: heparinized mouse whole blood, 5 µM from 5 mM DMSO stock, 37 °C, 4 h, UHPLC/UV 312 nm, mean of n = 3
Experimental: Procedures involving animals were approved by the University of Padova Ethical Committee for Animal Welfare (OPBA) and by the Italian Ministry of Health (Permit Number 846/2021-PR), and conducted with the supervision of the Central Veterinary Service of the University of Padova, in compliance with Italian Law DL 26/2014, embodying UE Directive 2010/63/EU. Mice were anesthetized and blood was withdrawn from the jugular vein and heparinized. Blood samples (1 mL) were spiked with compound (5 µM; dilution from a 5 mM stock solution in DMSO) and incubated at 37 °C for 4 h (the maximum period allowed by blood stability). Aliquots (100 µL) were taken after 10 min, 30 min, 1 h, 2 h, and 4 h, kept on ice, and treated as follows: blood was mixed with 5 volumes of 0.1%TFA in CH3CN, mixed and sonicated for 2 min, and finally centrifuged for 7 min at 12,000× g; the supernatant was collected and analyzed by UHPLC. Quantitative analyses were carried out by UHPLC (1290 Infinity LC System, Agilent Technologies, Milan, Italy) using a reversed-phase column (Zorbax RRHT Extend C18, 1.8 µm, 50 × 3.0 mm, Agilent Technologies) and a UV diode array detector (190–500 nm), at a flow rate of 0.6 mL/min. Solvents A and B were 0.1% TFA in water and CH3CN, respectively. The gradient for B was as follows: 10% for 1 min, then from 10 to 100% in 8.0 min, 100% for 0.5 min, then from 100% to 10% in 1.5 min. The injection volume was 5 µL. The eluate was preferentially monitored at 312 nm (corresponding to an absorbance maximum of psoralenic compounds). The temperature of the column was kept at 25 °C. Concentration of PAPTPL or its derivatives was determined using the following calibration curve, which correlates peak area at 312 nm (y) with compound concentration in the sample (x): y = 6.3321x. The stability in blood was expressed as % of PAPTPL released relative to the amount of the derivative initially spiked in the sample.

[2] = test system: HPAFII cells; experiment: Cell uptake of PAPTPL-I-DA7R (HPLC/UV); format: cell-based, human; conditions: 5 µM, 15 min, 37 °C, DMEM without Phenol Red and serum, nmoles/mg total protein, n ≥ 9
Experimental: HPAFII and Pan02 cells were seeded in 6-well plates at a density of 300,000 and 150,000 cells/well, respectively, and grown for 48 h. They were then washed twice with PBS and incubated for 15 min at 37 °C with a solution of 5 µM PAPTPL-I-DA7R in DMEM without Phenol Red and serum. At the end of the incubation, cells were washed twice, 100 µL of PBS were added, and finally the cells were scraped and collected. A volume of 100 µL of CH3CN + 0.1%TFA was added, and the mixture was vortexed and sonicated for 5 min. Samples were finally centrifuged for 5 min at 12,000× g, and the supernatant was collected and the amount of PAPTPL-I-DA7R was quantified by HPLC/UV, as described in Section 2.5 (blood stability). The remaining cell pellets were resuspended in 200 µL of SDS 2%, and the total protein amount of each sample was quantified with the BCA assay. Cell uptake of PAPTPL-I-DA7R was expressed as nmoles of PAPTPL-I-DA7R/total protein.

[3] = test system: erythrocytes; experiment: Hemolysis assay; format: cell-based; conditions: 5 × 10^7 erythrocytes in 1 mL PBS pH 7.4; 1, 0.5, 0.25 or 0.125 nmoles/10^7 cells; 15 min; Abs 540 nm; relative to Triton X-100 1%; n = 3
Experimental: Hemolysis studies were conducted as described in [48]. Briefly, freshly withdrawn blood samples were centrifuged at 2000× g for 10 min to obtain erythrocytes; the pellet was then washed three times with sterile PBS (pH 7.4). Erythrocytes (5 × 10^7 cells in 1 mL of PBS for each experimental condition) were incubated with the tested compounds at the concentrations of 1, 0.5, 0.25, or 0.125 nmoles/10^7 cells for 15 min. The samples were then centrifuged and the absorbance (Abs) of the supernatant was measured at 540 nm. Triton X-100 1% and PBS were used as positive and negative control, respectively. The percentage of hemolysis was calculated with the following equation:% hemolysis = [(Abssample − AbsPBS)/(AbsTriton X-100 − AbsPBS)] × 100

[4] = test system: VEGFR2; conditions: surface plasmon resonance; cited from earlier work
From the text: (§1) A7R peptide binds to both neuropilin-1 (NRP-1) and vascular endothelial growth factor receptor-2 (VEGFR2/KDR), disrupting their receptor/coreceptor interaction, and impacting, therefore, on angiogenesis and tumor growth. […] Binding of A7R to NRP-1, on the other hand, mainly involves interactions of Arg with the ...

[5] = test system: NRP-1; conditions: surface plasmon resonance; cited from earlier work
From the text: as §1

Row | Compound | % of conjugate hydrolyzed (PAPTPL released relative to derivative initially spiked) [1] | Uptake by HPAFII cells relative to cultured Pan02 cells [2] | Hemolysis [3] | Affinity for VEGFR2 [4] | Affinity for NRP-1 [5]
1 | CC[C@H](C)[C@H](NC(=O)Oc1ccc(CCCOc2ccc([P+](CCCc3ccc(OCCCCOc4c5ccoc5cc5oc(=O)ccc45)cc3)(c3ccccc3)c3ccccc3)cc2)cc1)C(=O)N[C@H](CCCNC(=N)N)C(=O)N1CCC[C@@H]1C(=O)N1CCC[C@@H]1C(=O)N[C@H](CC(C)C)C(=O)N[C@H](Cc1c[nH]c2ccccc12)C(=O)N[C@@H](C(=O)N[C@H](C)C(=O)O)[C@H](C)O [PAPTPL-I-DA7R] (HELM PEPTIDE1{[O=C(Oc1ccc(CCCOc2ccc([P+](CCCc3ccc(OCCCCOc4c5ccoc5cc5oc(=O)ccc45)cc3)(c3ccccc3)c3ccccc3)cc2)cc1)[*:2]].I.[dR].[dP].[dP].[dL].[dW].[dT].[dA]}$$$$V2.0) | about 30% | roughly twice as much | did not induce any hemolysis |  | 
2 | CC(C)C[C@@H](NC(=O)[C@H]1CCCN1C(=O)[C@H]1CCCN1C(=O)[C@@H](CCCNC(=N)N)NC(=O)CCCc1cn(CCOCCOCCOCCOCCNC(=O)Oc2ccc(CCCOc3ccc([P+](CCCc4ccc(OCCCCOc5c6ccoc6cc6oc(=O)ccc56)cc4)(c4ccccc4)c4ccccc4)cc3)cc2)nn1)C(=O)N[C@H](Cc1c[nH]c2ccccc12)C(=O)N[C@@H](C(=O)N[C@H](C)C(=O)O)[C@H](C)O [PAPTPL-Teg-DA7R] | about 50% |  | increase in the ability of the derivative (PAPTPL-Teg-DA7R) to lyse erythrocytes |  | 
3 | CC(C)C[C@@H]1NC(=O)[C@H](Cc2c[nH]c3ccccc23)NC(=O)[C@H]([C@@H](C)O)NC(=O)[C@H](C)NC(=O)[C@H](Cc2cn(CCOCCOCCOCCOCCNC(=O)Oc3ccc(CCCOc4ccc([P+](CCCc5ccc(OCCCCOc6c7ccoc7cc7oc(=O)ccc67)cc5)(c5ccccc5)c5ccccc5)cc4)cc3)nn2)NC(=O)[C@H](CCCNC(=N)N)NC(=O)[C@@H]2CCCN2C(=O)[C@@H]2CCCN2C1=O [PAPTPL-Teg-cA7R] | about 50% |  | dramatic increase in the hemolysis |  | 
4 | C#CC[C@@H]1NC(=O)[C@H](CCCNC(=N)N)NC(=O)[C@@H]2CCCN2C(=O)[C@@H]2CCCN2C(=O)[C@H](CC(C)C)NC(=O)[C@H](Cc2c[nH]c3ccccc23)NC(=O)[C@H]([C@@H](C)O)NC(=O)[C@H](C)NC1=O [cA7R] (HELM PEPTIDE1{A.T.W.L.P.P.R.[C#CC[C@H](N[*:1])C(=O)[*:2]]}$PEPTIDE1,PEPTIDE1,1:R1-8:R2$$$V2.0) |  |  | completely ineffective towards erythrocytes | retain affinity | retain affinity
